Measurements: US20230303649A1 (published 2023)

Biological target: T1, IL-2R on human primary T cells (human, UniProt P01589 22-272; P14784 27-551; P31785 23-369)
T1 sequence (looked up) 1: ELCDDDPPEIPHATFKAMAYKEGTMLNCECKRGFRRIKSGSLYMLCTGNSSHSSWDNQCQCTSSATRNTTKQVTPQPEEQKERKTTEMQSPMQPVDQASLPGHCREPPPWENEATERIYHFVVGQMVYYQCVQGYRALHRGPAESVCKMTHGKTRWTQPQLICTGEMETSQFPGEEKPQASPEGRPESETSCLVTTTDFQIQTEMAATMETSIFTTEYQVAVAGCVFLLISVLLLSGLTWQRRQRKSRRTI
T1 sequence (looked up) 2: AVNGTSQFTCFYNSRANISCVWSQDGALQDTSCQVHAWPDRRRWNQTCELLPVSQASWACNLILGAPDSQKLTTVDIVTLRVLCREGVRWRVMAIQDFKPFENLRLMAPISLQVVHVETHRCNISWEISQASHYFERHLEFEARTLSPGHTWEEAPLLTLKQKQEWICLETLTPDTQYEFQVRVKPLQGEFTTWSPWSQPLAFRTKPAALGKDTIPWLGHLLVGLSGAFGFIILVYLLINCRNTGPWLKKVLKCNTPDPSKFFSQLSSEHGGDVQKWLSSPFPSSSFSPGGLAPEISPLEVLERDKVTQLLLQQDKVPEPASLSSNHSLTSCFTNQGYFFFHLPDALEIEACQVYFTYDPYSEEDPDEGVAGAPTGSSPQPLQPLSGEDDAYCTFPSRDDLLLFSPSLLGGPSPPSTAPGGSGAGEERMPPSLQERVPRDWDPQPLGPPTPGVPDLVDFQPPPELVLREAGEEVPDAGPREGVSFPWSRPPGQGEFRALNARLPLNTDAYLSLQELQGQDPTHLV
T1 sequence (looked up) 3: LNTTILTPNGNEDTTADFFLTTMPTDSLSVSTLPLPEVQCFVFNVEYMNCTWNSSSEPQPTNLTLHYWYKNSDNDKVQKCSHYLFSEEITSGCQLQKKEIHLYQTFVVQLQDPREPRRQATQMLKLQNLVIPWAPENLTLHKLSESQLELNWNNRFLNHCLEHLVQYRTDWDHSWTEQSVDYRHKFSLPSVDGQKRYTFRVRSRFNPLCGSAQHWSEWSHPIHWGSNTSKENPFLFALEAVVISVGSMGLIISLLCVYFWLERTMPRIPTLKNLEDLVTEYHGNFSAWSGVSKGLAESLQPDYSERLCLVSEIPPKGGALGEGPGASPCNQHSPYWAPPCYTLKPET
Experiment: cell-based or functional assay

B1: SEQ ID NO 11 (ligand)
chain: APTSSSTKKTQLQLEHLRLDLEMILNGINNYKNPKLTRMLTFKFYMPKKATELKHLQCLEEELKPLEEVLNLAQSKNFHLRPRDLISNINVIVLELKGSETTFMCEYADETATIVEFLNRWITFSTSIISTLT
CD8 EC50 (nM), STAT5 phosphorylation: 650 nM | Treg EC50 (nM), STAT5 phosphorylation: 3.96 nM

B2: SEQ ID NO 39 (ligand)
chain: APTSSSTKKTQLQLEHLLLDLQMILNGINNYKNPKLTRMLTFKFYMPKKATELKHLQCLEEELKPLEEVLRLAQSKNFHLRPRDLISDINVIVLELKGSETTFMCEYADETATIVEFLNRWITFSQSIISTLT
CD4 conv EC50 (nM), STAT5 phosphorylation: 5500 nM | CD8 EC50 (nM), STAT5 phosphorylation: 10000 nM | CD8 naïve EC50 (nM), STAT5 phosphorylation: 10000 nM | Treg EC50 (nM), STAT5 phosphorylation: 91.9 nM

B3: SEQ ID NO 35 (ligand)
chain: APTSSSTKKTQLQLEHLLLDLQMILNGINNHKNPKLTRMLTFKFYMPKKATELKHLQCLEEELKPLEEVLNLAPSKNFHLRPRDLISDINVIVLELKGSETTFMCEYADETATIVEFLNRWITFSQSIISTLT
CD4 conv EC50 (nM), STAT5 phosphorylation: 7000 nM | CD8 EC50 (nM), STAT5 phosphorylation: 10000 nM | CD8 naïve EC50 (nM), STAT5 phosphorylation: 10000 nM | Treg EC50 (nM), STAT5 phosphorylation: 15.7 nM

B4: SEQ ID NO 38 (ligand)
chain: APTSSSTKKTQLQLEHLLLDLQMILNGINNYKNPKLTRMLTFKFYMPKKATELKHLQCLEEELKPLEEALRLAPSKNFHLRPRDLISDINVIVLELKGSETTFMCEYADETATIVEFLNRWITFSQSIISTLT
CD4 conv EC50 (nM), STAT5 phosphorylation: 8880 nM | CD8 EC50 (nM), STAT5 phosphorylation: 10000 nM | CD8 naïve EC50 (nM), STAT5 phosphorylation: 10000 nM | Treg EC50 (nM), STAT5 phosphorylation: 0.4 nM

B5: SEQ ID NO 34 (ligand)
chain: APTSSSTKKTQLQLEHLLLDLQMILNGINNHKNPKLTRMLTFKFYMPKKATELKHLQCLEEELKPLEEVLNLAQSKNFHLRPRDLISDINVIVLELKGSETTFMCEYADETATIVEFLNRWITFSQSIISTLT
CD4 conv EC50 (nM), STAT5 phosphorylation: 1000 nM | CD8 EC50 (nM), STAT5 phosphorylation: 1000 nM | CD8 naïve EC50 (nM), STAT5 phosphorylation: 1000 nM | Treg EC50 (nM), STAT5 phosphorylation: 2.44 nM

B6: SEQ ID NO 37 (ligand)
chain: APTSSSTKKTQLQLEHLLLDLQMILNGINNHKNPKLTRMLTFKFYMPKKATELKHLQCLEEELKPLEEALRLAPSKNFHLRPRDLISDINVIVLELKGSETTFMCEYADETATIVEFLNRWITFSQSIISTLT
CD4 conv EC50 (nM), STAT5 phosphorylation: 5500 nM | CD8 EC50 (nM), STAT5 phosphorylation: 10000 nM | CD8 naïve EC50 (nM), STAT5 phosphorylation: 10000 nM | Treg EC50 (nM), STAT5 phosphorylation: 1.11 nM

B7: SEQ ID NO 12 (ligand)
chain: APTSSSTKKTQLQLEHLRLDLEMILNGINNYKNPKLTRMLTFKFYMPKKATELKHLQCLEEELKPLEEVLNLAQSKNFHFDPRDVVSDINVFVLELKGSETTFMCEYADETATIVEFLNRWITFSTSIISTLT
CD8 EC50 (nM), STAT5 phosphorylation: 650 nM | Treg EC50 (nM), STAT5 phosphorylation: 200 nM

B8: SEQ ID NO 36 (ligand)
chain: APTSSSTKKTQLQLEHLLLDLQMILNGINNHKNPKLTRMLTFKFYMPKKATELKHLQCLEEELKPLEEALNLAQSKNFHLRPRDLISDINVIVLELKGSETTFMCEYADETATIVEFLNRWITFSQSIISTLT
CD4 conv EC50 (nM), STAT5 phosphorylation: 4000 nM | CD8 EC50 (nM), STAT5 phosphorylation: 10000 nM | CD8 naïve EC50 (nM), STAT5 phosphorylation: 10000 nM | Treg EC50 (nM), STAT5 phosphorylation: 11.7 nM
